Data on three molecules can be found in article PMC3631714 (Chembiochem : a European journal of chemical biology, 2012).

First the molecules themselves.
B2: Arap3-Sam wild-type (domain or fragment, human, UniProt Q8WWN8 1-80, looked up)
chain: MAAPQDLDIAVWLATVHLEQYADTFRRHGLATAGAARGLGHEELKQLGISATGHRKRILRLLQTGTEEGSLDPKSDSAME
B3: first Sam domain of Odin (Odin-Sam1) (domain or fragment, human, UniProt Q92625 691-770, looked up)
chain: ISGLRTLEQSVGEWLESIGLQQYESKLLLNGFDDVHFLGSNVMEEQDLRDIGISDPQHRRKLLQAARSLPKVKALGYDGN

Experiment [1] concerns the target B3. Put plainly: NMR titration.
The target of experiment [2] is B3. Put plainly: ITC. (In general: Isothermal titration calorimetry measures the heat released or taken up as one component is titrated into another.)
The experiment “Arap3-Sam wild-type” addresses B2. The experiment in a line: SPR. In general terms: In SPR one partner is held on a chip, and binding of the other changes the refractive index at the surface.

B1: Sam domain of the EphA2 receptor (EphA2-Sam) (domain or fragment, human, UniProt P29317 901-976, looked up)
chain: SEGVPFRTVSEWLESIKMQQYTEHFMAAGYTAIEKVVQMTNDDIKRIGVRLPGHQKRIAYSLLGLKDQVNTVGIPI
As to B1, in experiment [1], the binding result is given as “binds”.

B2 registered a dissociation constant Kd in experiment [2] of 370 ± 80 nM.

In turn, B3 registered a Kd with Arap3-Sam wild-type of 2900 ± 400 nM.

A word on the Kd: it is a measure of binding affinity in units of concentration.
